Tests used:
[1] = molecular target: T1, full-length human SIRPβ1 (NP_006056.2) on cells (human, UniProt O00241 30-398); assay: flow cytometry, Expi-CHO cells
T1 construct: also called β1 WT
Protocol: (§1) These cells are blocked with donkey IgG and incubated on ice with increasing concentrations of antibodies for 60 minutes, washed and stained with AF647-conjugated donkey F(ab′)₂ anti-human IgG antibodies. Stained cells are washed, fixed, and analyzed by flow cytometry. Median fluorescent intensity is determined and used as a measure of antibody binding.

[2] = molecular target: T2, full-length human SIRPγ (NP_061026.2) on cells (human, UniProt Q9P1W8 29-387); assay: flow cytometry, Expi-CHO cells expressing full-length wild-type human SIRPγ
T2 construct: also called CHO-hSIRPγ; γ WT
Protocol: as §1, with “[…] These” for “These”

[3] = molecular target: T3, full-length human SIRPβ1 D→H on Expi-CHO cells (human, UniProt O00241 30-398); assay: flow cytometry, Expi-CHO cells expressing full-length human SIRPβ1 D→H
T3 construct: the entry already carries the change (PDDV to PDHV)
Protocol: as §1

[4] = molecular target: ED-tagged human SIRPα V2 receptor on Jurkat signaling reporter cells (human, UniProt P78324 31-504); assay: cell-based or functional assay
[5] = molecular target: ED-tagged human SIRPα V1 receptor on Jurkat signaling reporter cells (human, UniProt P78324 31-504); assay: cell-based or functional assay
[6] = molecular target: T1, full-length human SIRPβ1 (NP_006056.2) …; assay: flow cytometry, U937 SIRPα-KO transfectants
Protocol: as §1, with “Antibody binding to cells expressing full-length human SIRPβ1 (NP_006056.2) and SIRPβL (NP_001129316.1) is evaluated by flow cytometry. SIRPβ1- or SIRPβL-expressing U937^{SIRPα KO}” for “These”, “secondary reagent. Cells” for “antibodies. Stained cells”

[7] = molecular target: T4, full-length human SIRPγ N→D on Expi-CHO cells (human, UniProt Q9P1W8 29-387); assay: flow cytometry, Expi-CHO cells
T4 construct: the entry already carries the change (PENV to PEDV)
Protocol: as §1, with “Expi-CHO parental cells are transduced with lentiviruses containing either full-length wild-type human SIRPγ ([…]) or full-length human SIRPγ with amino acid point mutations (Table 64) and sorted to achieve matching expression levels. These” for “These”

[8] = molecular target: T5, full-length human SIRPγ EN→DD on Expi-CHO cells (human, UniProt Q9P1W8 29-387); assay: flow cytometry, Expi-CHO cells
T5 construct: the entry already carries the change (PENV to PDDV)
T5 chain: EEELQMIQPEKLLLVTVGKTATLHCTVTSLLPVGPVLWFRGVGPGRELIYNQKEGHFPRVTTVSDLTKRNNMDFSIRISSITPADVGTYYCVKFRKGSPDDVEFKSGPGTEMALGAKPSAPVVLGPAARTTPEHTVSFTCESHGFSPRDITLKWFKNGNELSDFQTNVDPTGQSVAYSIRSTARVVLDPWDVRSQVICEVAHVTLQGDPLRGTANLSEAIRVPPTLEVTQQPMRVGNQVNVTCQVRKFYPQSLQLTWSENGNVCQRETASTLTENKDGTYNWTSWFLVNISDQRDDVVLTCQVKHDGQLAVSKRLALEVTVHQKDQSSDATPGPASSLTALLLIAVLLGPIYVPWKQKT
Protocol: as §1, with “Expi-CHO parental cells are transduced with lentiviruses containing either full-length wild-type human SIRPγ ([…]) or full-length human SIRPγ with amino acid point mutations (Table 64) and sorted to achieve matching expression levels. These” for “These”

[9] = molecular target: T6, full-length human SIRPγ E→D on Expi-CHO cells (human, UniProt Q9P1W8 29-387); assay: flow cytometry, Expi-CHO cells expressing full-length human SIRPγ E→D
T6 construct: the entry already carries the change (PENV to PDNV)
Protocol: as §1, with “Expi-CHO parental cells are transduced with lentiviruses containing either full-length wild-type human SIRPγ ([…]) or full-length human SIRPγ with amino acid point mutations (Table 64) and sorted to achieve matching expression levels. These” for “These”

[10] = molecular target: T7, full-length human SIRPβL H→D on Expi-CHO cells (human, UniProt Q5TFQ8 30-398); assay: flow cytometry, Expi-CHO cells
T7 construct: the entry already carries the change (PDHV to PDDV); also called βL WT H→D
Protocol: as §1, with “Expi-CHO parental cells are transduced with lentiviruses containing either full-length wild-type human SIRPβL (Q5TFQ8) or full-length human SIRPβL with a single amino acid point mutation (Table 62) and sorted to achieve matching expression levels. These” for “These”
(§2) A single amino acid substitution (H→D) introduced within the loop region maintained, strengthened, or facilitated antibody binding to these cells (FIG. 34B, Table 63).

[11] = molecular target: T8, full-length human SIRPβL (NP_001129316.1) on cells (human, UniProt Q5TFQ8 30-398); assay: flow cytometry, Expi-CHO cells expressing full-length wild-type human SIRPβL
T8 construct: one molecule for U937 SIRPα-KO transfectants (NP_001129316.1) and Expi-CHO transfectants (Q5TFQ8); also called SIRPβ1v3; βL WT
Protocol: as §1, with “Expi-CHO parental cells are transduced with lentiviruses containing either full-length wild-type human SIRPβL (Q5TFQ8) or full-length human SIRPβL with a single amino acid point mutation (Table 62) and sorted to achieve matching expression levels. These” for “These”
as §2

[12] = molecular target: T8, full-length human SIRPβL …; assay: flow cytometry, U937 SIRPα-KO cells expressing full-length human SIRPβL
Protocol: as §1, with “Antibody binding to cells expressing full-length human SIRPβ1 (NP_006056.2) and SIRPβL (NP_001129316.1) is evaluated by flow cytometry. SIRPβ1- or SIRPβL-expressing U937^{SIRPα KO}” for “These”, “secondary reagent. Cells” for “antibodies. Stained cells”

[13] = molecular target: T2, full-length human SIRPγ (NP_061026.2) …; assay: flow cytometry, primary human CD3+ T cells (endogenous SIRPγ)
Protocol: (§3) Antibody binding to primary human T cells expressing endogenous SIRPγ is evaluated by flow cytometry. Human peripheral blood mononuclear cells (PBMCs) are blocked with donkey IgG and incubated on ice with increasing concentrations of antibody for 60 minutes, washed and stained with AF647-conjugated donkey F(ab′)₂ anti-human IgG secondary reagent. […] Cells are washed, fixed, and analyzed by flow cytometry. Median fluorescent intensity of CD3+ gated population is determined and used as a measure of antibody binding.

[14] = molecular target: T9, full-length human SIRPαV2 (CAA71403.1) on cells (human, UniProt P78324 31-504); assay: flow cytometry, CD14+ monocytes V2V2
T9 construct: one molecule for CHO-K1 and Expi-CHO transfectants (CAA71403.1) and for endogenous V2 on THP-1 cells and on CD14+ monocytes of V2/V2 donors; also called CHO-hSIRPαV2; αV2 WT
Protocol: as §3, with “human” for “human T”, “expressing SIRPα” for “expressing endogenous SIRPγ”, “(PBMCs) from donors genotyped as homozygous for the SIRPα V1 allele, V2 allele, or heterozygous for both alleles” for “(PBMCs)”, “of the CD14+” for “of CD3+ gated”, “population was” for “population is”

[15] = molecular target: T8, full-length human SIRPβL …; assay: flow cytometry, U937 SIRPα-KO transfectants
Protocol: Antibody binding to cells expressing full-length human SIRPβ1 (NP_006056.2) and SIRPβL (NP_001129316.1) is evaluated by flow cytometry. SIRPβ1- or SIRPβL-expressing U937^{SIRPα KO} cells are blocked with donkey IgG and incubated on ice with increasing concentrations of antibodies for 60 minutes, washed and stained with AF647-conjugated donkey F(ab′)₂ anti-human IgG secondary reagent. Cells are washed, fixed, and analyzed by flow cytometry. Median fluorescent intensity is determined and used as a measure of antibody binding.

[16] = molecular target: T9, full-length human SIRPαV2 (CAA71403.1) …; assay: flow cytometry, competition with CD47 tetramer, monocytes V2V2
Protocol: Cells are washed, fixed, and analyzed by flow cytometry. Median fluorescent intensity of CD14+gated population is determined and used as a measure of CD47 binding.

[17] = molecular target: T10, full-length human SIRPαV1 (NP_542970.1) on cells (human, UniProt P78324 31-504); assay: flow cytometry, CD14+ monocytes V1V1
T10 construct: one molecule for CHO-K1 and Expi-CHO transfectants (NP_542970.1) and for endogenous V1 on U-937 cells and on CD14+ monocytes of V1/V1 donors; also called CHO-hSIRPαV1; αV1 WT
Protocol: as §3, with “human” for “human T”, “expressing SIRPα” for “expressing endogenous SIRPγ”, “(PBMCs) from donors genotyped as homozygous for the SIRPα V1 allele, V2 allele, or heterozygous for both alleles” for “(PBMCs)”, “of the CD14+” for “of CD3+ gated”, “population was” for “population is”

B1: Antibody A4 (antibody, human IgG1, kappa, L234A L235A, V domains shown)
VH: EVQLVESGGGLVQPGGSLRLSCAASGFTLSSYDMHWVRQAPGKGLEWVSAIGTAGDTYYTGSVKGRFTISRENAKNSLYLQMNSLRAADTAVYYCVRGGVWDDAFDIWGQGTMVTVSS
VL: DIQMTQSPSSLSASVGDRVTITCRASQGINNYAAWFQQKPGKAPKSLIYTASSLHSGVPSKFSGSGSGTDFTLTISSLQPEDFATYYCQQYVSYPYTFGQGTKLEIKR
- EC50 [1]: 1.5 nM
- binding result [2]: no binding (tested: about 67 nM)
- binding result [3]: no binding (tested: about 67 nM)
- Blockade of Cellular CD47-Mediated SIRPα Signaling; IC50 [4]: 0.05 nM
- Blockade of Cellular CD47-Mediated SIRPα Signaling; IC50 [5]: 0.04 nM
- EC50 [6]: 0.2 nM
- EC50 [7]: 0.5 nM
- EC50 [8]: 0.7 nM
- binding result [9]: no binding (tested: about 67 nM)
- EC50 [10]: 0.5 nM
- binding result [11]: no binding (tested: about 67 nM)

B2: Antibody F (antibody, human IgG4 S228P, kappa)
heavy: not shown
light: DIQMTQSPSSLSASVGDRVTITCRASQDINNYLAWFQQKPGKAPKSLIYTASSLHSGVPSKFSGSGSGTDFTLTISSLQPEDFATYYCQQYVSYPYTFGQGTKLEIKRTVAAPSVFIFPPSDEQLKSGTASVVCLLNNFYPREAKVQWKVDNALQSGNSQESVTEQDSKDSTYSLSSTLTLSKADYEKHKVYACEVTHQGLSSPVTKSFNRGEC
- binding result [12]: no binding (tested: about 200 nM)
- Blockade of Cellular CD47-Mediated SIRPα Signaling; IC50 [4]: 0.03 nM
- Blockade of Cellular CD47-Mediated SIRPα Signaling; IC50 [5]: 0.04 nM
- EC50 [6]: 0.2 nM
- binding result [13]: no binding (tested: about 67 nM)

B3: Antibody G (antibody, human IgG4 S228P, kappa)
heavy: not shown
light: DIVMTQSPLSLPVTPGEPASISCKSSQSLLYSNGYNYLDWYLQRPGQSPQLLIYLGSNRASGVPDRFSGSGSGTDFTLKISRVEAEDVGVFYCMQALQTPLTFGGGTKVEIKRTVAAPSVFIFPPSDEQLKSGTASVVCLLNNFYPREAKVQWKVDNALQSGNSQESVTEQDSKDSTYSLSSTLTLSKADYEKHKVYACEVTHQGLSSPVTKSFNRGEC
- EC50 [14]: 0.4 nM
- Blockade of Cellular CD47-Mediated SIRPα Signaling; IC50 [4]: 0.03 nM
- Blockade of Cellular CD47-Mediated SIRPα Signaling; IC50 [5]: 0.04 nM
- EC50 [15]: 0.3 nM
- IC50 [16]: 0.22 nM
- EC50 [17]: 0.3 nM
- binding result [13]: no binding (tested: about 67 nM)
